From patent publication US5968782

Target: mouse fibrinogen (mouse) (UniProt E9PV24)

fibrinogenolysis assay: time required for thrombin to clot mouse plasma [s] | time required for thrombin to clot mouse plasma (control) [s] | Substance
> 40 | – | recombinant mMCP-7-FLAG (EK-activated mature mouse mast cell protease 7 with C-terminal FLAG peptide) (enzyme)
– | 15 | thrombin (enzyme)
